According to publication PMC11625884:

Target: AMBRA1^WD40 (UniProt Q9C0C7)
Test: co-IP; AMBRA1 antibody (Proteintech) coupled to Dynabeads, mixed with lysate of SHSY5Y cells overexpressing AMBRA1 constructs; washed; western blot for the protein of interest

Sequence of UniProt Q9C0C7 (Q9C0C7 whole entry): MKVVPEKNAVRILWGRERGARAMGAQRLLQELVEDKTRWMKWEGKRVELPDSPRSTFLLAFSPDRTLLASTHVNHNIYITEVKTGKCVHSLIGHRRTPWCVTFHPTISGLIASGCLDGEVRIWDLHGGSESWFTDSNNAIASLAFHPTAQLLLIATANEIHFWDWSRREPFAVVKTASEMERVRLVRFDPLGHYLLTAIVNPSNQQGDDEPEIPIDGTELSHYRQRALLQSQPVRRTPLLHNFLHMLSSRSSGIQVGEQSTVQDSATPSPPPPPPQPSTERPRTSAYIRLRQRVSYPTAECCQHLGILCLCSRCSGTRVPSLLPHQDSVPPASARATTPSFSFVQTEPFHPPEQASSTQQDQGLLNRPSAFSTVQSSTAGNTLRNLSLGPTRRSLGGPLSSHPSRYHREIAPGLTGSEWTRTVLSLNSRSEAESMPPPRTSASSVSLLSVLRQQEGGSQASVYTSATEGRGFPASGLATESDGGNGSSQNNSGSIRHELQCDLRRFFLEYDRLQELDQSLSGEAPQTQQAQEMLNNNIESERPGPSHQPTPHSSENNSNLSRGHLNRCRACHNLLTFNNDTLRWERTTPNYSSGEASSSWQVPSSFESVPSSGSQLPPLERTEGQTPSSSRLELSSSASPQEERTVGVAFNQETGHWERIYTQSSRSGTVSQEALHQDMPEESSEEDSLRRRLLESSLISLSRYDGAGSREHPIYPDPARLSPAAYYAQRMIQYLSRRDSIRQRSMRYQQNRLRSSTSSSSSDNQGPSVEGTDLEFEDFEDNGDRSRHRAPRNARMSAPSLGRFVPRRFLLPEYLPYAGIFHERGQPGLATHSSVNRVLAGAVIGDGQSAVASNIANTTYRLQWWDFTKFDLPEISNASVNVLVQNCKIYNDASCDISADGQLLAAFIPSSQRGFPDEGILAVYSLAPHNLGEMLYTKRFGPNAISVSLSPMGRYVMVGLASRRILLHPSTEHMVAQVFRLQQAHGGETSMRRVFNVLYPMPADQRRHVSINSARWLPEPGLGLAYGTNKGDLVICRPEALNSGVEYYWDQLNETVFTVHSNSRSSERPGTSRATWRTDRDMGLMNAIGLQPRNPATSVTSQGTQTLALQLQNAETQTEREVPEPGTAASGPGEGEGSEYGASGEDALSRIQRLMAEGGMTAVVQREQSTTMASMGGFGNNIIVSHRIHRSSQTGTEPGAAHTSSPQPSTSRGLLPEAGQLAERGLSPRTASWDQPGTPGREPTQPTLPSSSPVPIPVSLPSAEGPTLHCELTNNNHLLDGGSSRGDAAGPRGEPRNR

## DDB1 (from UniProt Q16531 1-1140) (natural protein)
  fold change of the AMBRA1/DDB1 interaction against AMBRA1^WT: 0.5 fold
